Assay [1] concerns the target CD20 immobilized on a sensor tip (UniProt P11836). The assay is described as follows: BLI, CD20 on tip.
For assay [2] the target is unchanged. Description: BLI, human CD20 immobilized on the sensor tip, antibody in half dilution from 50 nM, 1:1 fit. (In general: Biolayer interferometry detects binding as a change in optical thickness at a sensor tip.)
In a further assay the target is CD20 on SU-DHL5 cells (UniProt P11836). The assay is described as follows: flow cytometry on SU-DHL5 cells, muGFP signal, 10 nM antibody. (In general: In flow cytometry, cells or beads pass a laser one at a time.)
Assay [3] addresses CD20 immobilized on a sensor tip (UniProt P11836). Description: BLI, CD20 on tip; effective KD.
Assay [4] shares this target. Description: BLI, […], antibody 6.25-50.0 nM, 1:1 fit.
The target of assay [5] is HER2 ectodomain (biotinylated Her2/ERBB2, Sino Biological) (human) (UniProt P04626). The assay is described as follows: BLI, HER2 ectodomain immobilized on the sensor tip, antibody in half dilution from 500 nM, 1:1 fit.
For assay [6] the target is unchanged. Description: BLI, HER2 ectodomain on tip; effective KD.
Assay [7] shares this target. The assay is described as follows: BLI, HER2 ectodomain immobilized on the sensor tip, antibody in half dilution from 250 nM, 1:1 fit.
For assay [8] the target is unchanged. Description: BLI, antigen on streptavidin tip, 1:1 fit.
Assay [9] has the same target. Description: BLI, […], antibody 3.1-[…], 1:1 fit.
Assay [10] shares this target. Description: BLI, antigen on streptavidin tip; below the instrument's limit.
For assay [11] the target is unchanged. Description: BLI, […], antibody 6.25-50 nM, 1:1 fit.
Assay [12] shares this target. The assay is described as follows: BLI, HER2 ectodomain on tip.
Assay [13] has as its target Receptor-binding domain of the SARS-CoV-2 spike protein (biotinylated, Acrobio system) (SARS-CoV-2) (UniProt P0DTC2). Description: BLI, antigen on streptavidin tip.
Assay [14] has the same target. The assay is described as follows: BLI, antigen on streptavidin tip, 1:1 fit.
Assay [15] shares this target. The assay is described as follows: BLI, antigen on streptavidin tip; below the instrument's limit.

The term Kd denotes the constant that tells how readily two partners part at equilibrium. Low readings indicate tighter binding, high ones weaker binding. Usually koff stands for a measure of how fast the partners let go of each other. Lower therefore signals slow dissociation. As usually defined, the kon is the rate constant with which the complex forms. A low value points to slower complex formation.

In the case of Obinutuzumab(Y101L) (antibody), in assay [1], the Kd was 30.4 nM. For the same substance, in assay [2], the koff turned out to be 0.01 s⁻¹ and the kon turned out to be 330000 M⁻¹ s⁻¹.
In the case of “SLy1(254-316)^(H)-Obinutuzumab(F101L)/HetFc-SDF-1α(8-67)^(H) labeled with muGFP at the C-terminus of the light chain (antibody)”, the percent bound to SU-DHL5 cells at 10 nM with CD20 on SU-DHL5 cells was determined as 90%.
Regarding “SLy1(254-316)^(H)-Obinutuzumab(Y101L)/HetFc-SDF-1α(8-67)^(H) (antibody)”, the Kd in [3] worked out at 0.13 nM. In [4], this substance gave a koff of 2.3e-05 s⁻¹ and a kon of 180000 M⁻¹ s⁻¹.
In [5], “SLy1(254-316)^(H)-Trastuzumab(N30A/H91A/Y100A)/HetFc (antibody)” returned a Kd of 373 nM.
In assay [6], “SLy1(254-316)^(H)-Trastuzumab(N30A/H91A/Y100A)/HetFc-SDF-1α(8-67)^(H) (antibody)” returned a Kd of less than 0.8 nM. In assay [7], this substance came in with a Kd of 0.8 nM, a koff of 5.8e-05 s⁻¹ and a kon of 71000 M⁻¹ s⁻¹.
Trastuzumab(N30A/H91A) (antibody): in [8], the Kd came out at 2.1 nM and the kon is 190000 M⁻¹ s⁻¹.
“Trastuzumab(N30A/H91A)-HomoCC^(H) (antibody)”: in assay [6], the Kd was less than 0.01 nM.
“Trastuzumab(N30A/H91A)-SDF-1α(8-67)^(H) (antibody)”: the kon was 290000 M⁻¹ s⁻¹ in assay [8] and 310000 M⁻¹ s⁻¹ in assay [9]. In addition, the Kd in [10] is less than 0.01 nM.
With “Trastuzumab(N30A/H91A)-SDF-1α(8-67)^(L) (antibody)”, in assay [6], the Kd was less than 0.01 nM. In assay [11], the koff is less than 1e-07 s⁻¹ and the kon turned out to be 189000 M⁻¹ s⁻¹.
As to Trastuzumab(N30A/H91A/Y100A) (antibody), the Kd in assay [12] was 243 nM.
In turn, glCV30-SDF-1α(8-67)^(H) (antibody) gave a fold increase of binding avidity over glCV30 in assay [13] of more than 130 fold. In assay [14], the kon stood at 770000 M⁻¹ s⁻¹. The substance also had a Kd in [15] of less than 0.01 nM.
